Data from the supplement of paper PMC7125110.
± gives the standard error. Variants at the floor of the assay were thinned out.

B1: glmS ribozyme (parent)
chain: AUAAAAGCGCCAGAACUACAGAAAUGUAGUUGACGAGGAGGAGGUUUAUCGAAUUUUCGGCGGAUGCCUCCAAA

What was measured:
Settings in all cases: with glucosamine-6-phosphate
[1] = variants of: B1; test: self-cleavage kobs at 40 uM GlcN6P; higher = faster cleavage; RNA array
Summary of the method: (§1)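 Using a hybridised Cy3 probe at 37 °C, barcoded ribozyme variants transcribed in situ by E. coli RNA polymerase on sequenced MiSeq chips were monitored across tiles imaged over ~14 h. The flow contained glucosamine-6-phosphate from 40 μM to 10 mM in HEPES/KCl/Mg(OAc)2 buffer. Signals were normalised to baseline and to non-cleaving reference variants before per-tile medians were fit to one- or two-exponential decays to yield kobs. Weighted Michaelis–Menten fits across concentrations gave kcat and KM.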

[2] = variants of: B1; test: self-cleavage kobs at 160 uM GlcN6P; higher = faster cleavage; RNA array
Summary of the method: as §1

[3] = variants of: B1; test: self-cleavage kobs at 640 uM GlcN6P; higher = faster cleavage; RNA array
Summary of the method: as §1

[4] = variants of: B1; test: self-cleavage kobs at 2500 uM GlcN6P; higher = faster cleavage; RNA array
Summary of the method: as §1

[5] = variants of: B1; test: self-cleavage kobs at 10000 uM GlcN6P; higher = faster cleavage; RNA array
Summary of the method: as §1

Variant	self-cleavage kobs at 40 uM GlcN6P [1]	self-cleavage kobs at 160 uM GlcN6P [2]	self-cleavage kobs at 640 uM GlcN6P [3]	self-cleavage kobs at 2500 uM GlcN6P [4]	self-cleavage kobs at 10000 uM GlcN6P [5]
U46A G60C	< 1e-05 s⁻¹	< 1e-05 s⁻¹	< 1e-05 s⁻¹	< 1e-05 s⁻¹	< 1e-05 s⁻¹
U30A U57G U65G	< 1e-05 s⁻¹				
U57C G59U C61U	< 1e-05 s⁻¹				< 1e-05 s⁻¹
C50G C58A C70U	9.84e-05 ± 1.6e-05 s⁻¹			0.000176 ± 4e-05 s⁻¹	0.000117 ± 2.1e-05 s⁻¹
G9U A14C A52C	< 1e-05 s⁻¹			< 1e-05 s⁻¹	< 1e-05 s⁻¹
G7C A33U A48U	< 1e-05 s⁻¹				
G9A C34G U46C C61U G62U	< 1e-05 s⁻¹				
C50G G66U C67A	0.000105 ± 1.9e-05 s⁻¹			4.67e-05 ± 1.7e-05 s⁻¹	0.000166 ± 2.7e-05 s⁻¹
U30G U56G C58U U69C	< 1e-05 s⁻¹				
G32C U45C U69A	< 1e-05 s⁻¹				
C10A G37C G38A A64U U65C	< 1e-05 s⁻¹			< 1e-05 s⁻¹	
A14C G43C	< 1e-05 s⁻¹		< 1e-05 s⁻¹	< 1e-05 s⁻¹	
U30C A64C	< 1e-05 s⁻¹		< 1e-05 s⁻¹		< 1e-05 s⁻¹
A6U C11G U46G C68A	< 1e-05 s⁻¹		< 1e-05 s⁻¹	< 1e-05 s⁻¹	
G7U G35C U55G A64C	< 1e-05 s⁻¹				
C11U G60C	< 1e-05 s⁻¹	< 1e-05 s⁻¹			< 1e-05 s⁻¹
G29C G32C U57G	< 1e-05 s⁻¹				
A33U G44C C68U	< 1e-05 s⁻¹				< 1e-05 s⁻¹
A36U A64G U69A C71G	6.16e-05 ± 2.9e-05 s⁻¹				
G13C G32C U57G C70G	7.16e-05 ± 2.4e-05 s⁻¹				9.13e-05 ± 1.7e-05 s⁻¹
G32C C34U	< 1e-05 s⁻¹	< 1e-05 s⁻¹	< 1e-05 s⁻¹	< 1e-05 s⁻¹	< 1e-05 s⁻¹
C10G C11U	< 1e-05 s⁻¹		< 1e-05 s⁻¹		
C8A G35C A48C G60A	< 1e-05 s⁻¹				
A42G U45G	0.000836 ± 0.00024 s⁻¹				0.0514 ± 0.014 s⁻¹
U31G C71A	0.000103 ± 1.4e-05 s⁻¹	0.000505 ± 0.00012 s⁻¹	0.000376 ± 8.1e-05 s⁻¹	0.000715 ± 0.00018 s⁻¹	0.00392 ± 0.00068 s⁻¹
A48U C68A	< 1e-05 s⁻¹		< 1e-05 s⁻¹		
G60U C70G	< 1e-05 s⁻¹				< 1e-05 s⁻¹
G38C A39C G40C C50A A53G U65C	< 1e-05 s⁻¹				
